Blank lines part the entries; values can stand above or below the molecule they belong to.
Assays:
PD2560 = experiment: Cisplatin mediated cell death (cleaved caspase 3 immunoblot) with or without IL-22 pre-treatment; type: cell-based, murine
Experimental: Chemoresistance is a well-established phenomenon in PDAC and is often responsible for disease progression and death. […] Cells were then treated with varying doses of cisplatin and cell death assessed by immunoblot for cleaved caspase 3. Degree of DNA damage was determined by measurement of phosphorylated histone 2AX (pH2AX), a marker of DNA damage triggered by cisplatin (ref. 39; incorporated by reference in its entirety). […] The differences in cell death appeared to be mediated by changes in DNA damage (FIG. 6 Panel B).

IL-22 [1] = molecular target: T1, IL-22 (Homo sapiens, UniProt Q9GZX6); experiment: Neutralization of human IL-22 by IL-22BP, read out as pSTAT3 activation in PDAC lines; type: cell-based; settings: IL-22 100 ng/ml incubated 30 minutes with IL-22BP 0-1000 ng/ml, pSTAT3 at 15 minutes in PDAC lines
T1 sequence (Q9GZX6 34-179): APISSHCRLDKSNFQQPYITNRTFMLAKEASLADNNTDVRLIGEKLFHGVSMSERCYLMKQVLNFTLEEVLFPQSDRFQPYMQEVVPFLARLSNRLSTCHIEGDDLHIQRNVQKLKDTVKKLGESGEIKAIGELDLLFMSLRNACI
Experimental: (§1) IL-22BP is an important regulator of IL-22 signaling at the tissue level and functions by sequestering cytokine and blocking its ability to bind to its cognate receptor. Its high affinity for IL-22 and neutralizing ability make it an attractive target for pharmacologic disruption of IL-22 signaling. To determine its efficacy in vitro, a fixed concentration of human and mouse IL-22 (100 ng/ml) was incubated for 30 minutes with increasing concentrations of human or mouse IL-22BP (0-1000 ng/ml). The mixture was then placed onto human and murine PDAC lines and IL-22 signaling measured by pSTAT3 activation at 15 minutes. […] A fusion protein which binds hIL-22BP to murine albumin was constructed.

mouse IL-22 = molecular target: T2, mouse IL-22 (Mus musculus, UniProt Q9JJY9); experiment: Neutralization of mouse IL-22 by IL-22BP, read out as pSTAT3 activation in PDAC lines; type: cell-based; settings: IL-22 100 ng/ml incubated 30 minutes with IL-22BP 0-1000 ng/ml, pSTAT3 at 15 minutes in PDAC lines
T2 sequence (Q9JJY9 34-179): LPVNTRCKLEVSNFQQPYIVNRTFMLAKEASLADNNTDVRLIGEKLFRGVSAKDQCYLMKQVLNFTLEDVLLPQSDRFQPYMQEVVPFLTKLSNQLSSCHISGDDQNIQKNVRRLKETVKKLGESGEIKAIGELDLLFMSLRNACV
Experimental: as §1

[2] = molecular target: T3, human IL-22 binding protein (IL-22BP) (Homo sapiens, UniProt Q969J5 22-263); experiment: binding inferred from neutralisation of IL-22-induced pSTAT3 on PDAC cells (immunoblot)
T3 construct: also called hIL-22BP; human IL-22BP
T3 sequence: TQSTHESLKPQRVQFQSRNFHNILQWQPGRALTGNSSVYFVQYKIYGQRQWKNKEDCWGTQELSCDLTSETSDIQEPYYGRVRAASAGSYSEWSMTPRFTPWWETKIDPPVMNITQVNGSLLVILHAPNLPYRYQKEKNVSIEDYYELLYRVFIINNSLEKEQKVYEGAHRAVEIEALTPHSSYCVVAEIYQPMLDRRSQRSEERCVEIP

[3] = molecular target: T4, IL-22BP-Alb fusion protein (human IL-22BP fused to murine albumin) (Homo sapiens; mouse, UniProt Q969J5 22-263); experiment: binding inferred from neutralisation of IL-22-induced pSTAT3 signaling in vitro
T4 construct: also called fusion protein of hIL-22BP and albumin; not shown: serum albumin, mouse, cloned from mouse liver
T4 sequence: T3 sequence
Experimental: as §1

PKCY cells = experiment: Matrigel invasion assay, PDAC line; type: cell-based, murine; settings: IL-22 incubation compared to control conditions (untreated and IL-6)
Experimental: (§2) To establish the role of IL-22 in pancreatic tumorigenesis in vitro, the murine PDAC line PKCY and PanIN lines 134, 5505 and 5552 were incubated in IL-22. Matrigel invasion assays were performed and number of infiltrating cells quantified. IL-22 incubation induced a 10-fold increase in invasion of PKCY cells compared to control conditions (untreated and IL-6) (FIG. 5 Panel A). […] Wild-type and IL-22 knockout mice were subcutaneously inoculated with equal quantities of PKCY cells. At 21 days, mice were sacrificed and tumor development, size and weight were determined.

PanIN cell lines = experiment: Matrigel invasion assay, PanIN lines; type: cell-based, murine; settings: IL-22 incubation; two PanIN cell lines with little to no invasive capability at baseline
Experimental: as §2

[4] = system: human and mouse PDAC cell lines; experiment: Immunoblotting for STAT3 and NF-κB activation after IL-22 incubation; type: cell-based; settings: 100 ng/ml of IL-22 for 15 and 30 minutes
Source text: One of the principle signaling pathways activated by ligand binding at IL-22R1 is via JAK mediated phosphorylation of STAT3 (pSTAT3) (Refs. 7, 36, 37; incorporated by reference in its entirety). Because of constitutive association of STAT3 with the intracellular domain of the receptor, signaling is activated rapidly and efficiently upon IL-22 binding (ref 38; incorporated by reference in its entirety). A second, less described IL-22 signaling pathway is via NF-κB, which leads to transcription of genes associated with proliferation and prevention of apoptosis (ref. 6, 7; incorporated by reference in their entireties). To evaluate the ability of IL-22 to activate STAT3 and NF-κB in human and mouse PDAC, cell lines were incubated with 100 ng/ml of IL-22 for 15 and 30 minutes. […] To determine the presence of STAT3 activation in-vivo, IHC for pSTAT3 was performed on pancreata harvested from PKCY mice at 8 weeks (low-grade PanIN), 12 weeks (high-grade PanIN) and after ultrasound confirmation of PDAC. pSTAT3 staining was increased as lesions advanced from low grade PanIN to invasive cancer (FIG. 4B-D).

IL-22 [5] = molecular target: T1, IL-22; experiment: In vitro testing of fusion protein for sequestration and abrogation of STAT3 signaling; type: cell-based; settings: IL-22 species not stated, FIG. 6 Panel E
Experimental: as §1

Molecule: N.N.[Cl][Pt][Cl] [cisplatin, reference compound]
cell death by cisplatin (cleaved caspase 3) (PD2560; murine PDAC line PD2560, low and high doses): showed sensitivity

B1: Human IL-22BP: human interleukin-22 binding protein, soluble receptor capable of cytokine neutralization (SEQ ID NO: 1) (protein, listed as Homo sapiens)
chain: MMPKHCFLGFLISFFLTGVAGTQSTHESLKPQRVQFQSRNFHNILQWQPGRALTGNSSVYFVQYKIYGQRQWKNKEDCWGTQELSCDLTSETSDIQEPYYGRVRAASAGSYSEWSMTPRFTPWWETKIDPPVMNITQVNGSLLVILHAPNLPYRYQKEKNVSIEDYYELLYRVFIINNSLEKEQKVYEGAHRAVEIEALTPHSSYCVVAEIYQPMLDRRSQRSEERCVEIP
neutralization of human IL-22 (pSTAT3 activation) (IL-22 [1]): completely neutralizing | neutralization of human IL-22 (pSTAT3 activation) (IL-22 [1]; listed as hIL-22BP): capable of binding and neutralizing | neutralization of murine IL-22 (pSTAT3 activation) (mouse IL-22): completely neutralizing | neutralization of murine IL-22 (pSTAT3 activation) (mouse IL-22; listed as hIL-22BP): capable of binding and neutralizing

B3: IL-22: α-helical cytokine that binds the heterodimeric cell surface receptor IL-22R (protein, UniProt Q9GZX6 34-179, looked up)
Interleukin-22: T1 sequence (Q9GZX6 34-179)
effect of IL-22 pre-treatment on sensitivity to cisplatin (PD2560; PD2560 cultured in IL-22 for 4 days before cisplatin): diminished | increase in invasion of PKCY cells (PKCY cells): 10 fold | invasion of PanIN cell lines (PanIN cell lines): induced invasion | pSTAT3 activation [4]: robust pSTAT3 activation | pNF-κB ([4]; KPC and PKCY lines): modest increase

B6: IL-22BP-Alb: fusion protein which binds hIL-22BP to murine albumin (protein)
chain: T3 sequence
modifications: left off: large carriers
neutralization of IL-22 (sequestration and abrogation of STAT3 signaling) (IL-22 [5]): capable of neutralizing IL-22 | neutralization of human IL-22 (pSTAT3 activation) (IL-22 [1]): capable of binding and neutralizing | neutralization of murine IL-22 (pSTAT3 activation) (mouse IL-22): capable of binding and neutralizing

The remaining lines, values ahead:

binding result [2]: binds | binding result [3]: binds
B2: human IL-22 (ligand, UniProt Q9GZX6 34-179, looked up)
chain: T1 sequence (Q9GZX6 34-179)
notes: Used at a fixed 100 ng/ml

binding result [2]: binds | binding result [3]: binds
B4: mouse IL-22 (ligand, UniProt Q9JJY9 34-179, looked up)
chain: T2 sequence (Q9JJY9 34-179)
notes: Used at a fixed 100 ng/ml; also called murine IL-22

neutralization of human IL-22 (pSTAT3 activation) (IL-22 [1]): little sequestration | neutralization of murine IL-22 (pSTAT3 activation) (mouse IL-22): little sequestration
B5: murine IL-22BP: mouse interleukin-22 binding protein (SEQ ID NO: 2) (protein, listed as Mus musculus)
chain: MMPKHCLLGLLIILLSSATALEIQPARVSLTPQKVRFQSRNFHNILHWQAGSSLPSNNSIYFVQYKMYGQSQWEDKVDCWGTTALFCDLTNETLDPYELYYGRVMTACAGRHSAWTRTPRFTPWWETKLDPPVVTITRVNASLRVLLRPPELPNRNQSGKNASMETYYGLVYRVFTINNSLEKEQKAYEGTQRAVEIEGLIPHSSYCVVAEMYQPMFDRRSPRSKERCVQIP
